From WO2007014744A2 (dated 2007)

What was measured:
[1] = target: T1, fibroblast activation protein (FAP) (UniProt Q12884 1-760, limits assumed); assay: flow cytometry on HT1080FAP against HT1080 cells, 5 ug/ml fusion protein, anti-Flag M2 detection
T1 construct: whole, on cells; also called FAP antigen; FAP on HT1080FAP cells
T1 sequence (looked up): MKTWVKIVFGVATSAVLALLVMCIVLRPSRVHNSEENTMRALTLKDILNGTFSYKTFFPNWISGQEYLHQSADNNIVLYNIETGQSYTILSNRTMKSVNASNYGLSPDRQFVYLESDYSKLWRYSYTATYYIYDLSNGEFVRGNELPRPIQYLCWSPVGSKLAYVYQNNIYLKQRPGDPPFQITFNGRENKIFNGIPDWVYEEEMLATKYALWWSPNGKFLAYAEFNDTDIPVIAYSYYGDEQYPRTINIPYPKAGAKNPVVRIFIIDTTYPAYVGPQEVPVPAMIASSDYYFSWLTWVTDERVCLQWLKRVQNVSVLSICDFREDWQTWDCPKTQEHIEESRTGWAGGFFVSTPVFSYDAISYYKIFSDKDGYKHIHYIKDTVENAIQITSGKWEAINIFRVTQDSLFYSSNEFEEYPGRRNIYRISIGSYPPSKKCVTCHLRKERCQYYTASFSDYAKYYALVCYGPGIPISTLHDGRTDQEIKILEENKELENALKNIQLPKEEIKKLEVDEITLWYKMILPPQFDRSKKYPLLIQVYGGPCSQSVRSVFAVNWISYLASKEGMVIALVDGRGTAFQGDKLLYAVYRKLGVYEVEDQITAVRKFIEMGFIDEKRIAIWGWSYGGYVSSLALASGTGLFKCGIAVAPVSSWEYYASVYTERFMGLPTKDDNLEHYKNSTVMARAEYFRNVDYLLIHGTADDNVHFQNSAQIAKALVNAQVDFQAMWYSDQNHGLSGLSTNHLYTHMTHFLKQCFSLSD

[2] = target: the molecule itself; assay: BS3 chemical crosslinking, gel filtration and native PAGE; multimers up to hexamers, native mass about 500 kDa

binding result [1]: binds
B1: CD95-TNC-PL-SC40-CD95L prodrug (other)
chain: LEVARLSSKSVNAQVTDINSKGLELRKTVTTVETQNLEGLHHDGQFCHKPCPPGERKARDCTVNGDEPDCVPCQEGKEYTDKAHFSSKCRRCRLCDEGHGLEVEINCTRTQNTKCRCKPNFFCNSTVCEHCDPCTKCEHGIIKECTLTSNTKCKEEGSRSNPRDIACGCAAAPDIKDLLSRLEELEGLVSSLREQGTGGGSGRPPRDHPVGLLARGGGHPVGLLARGGGHPVGLLARTGLEQVQLVQSGGGMVEPGGSLRLSCAASGFTFSNAWMSWVRQAPGKGLEWVGRIKSKAGGGTAEYAAPVKGRFTISRDDSQNTLYLQMNSLKTDDTAVYYCTTHVYGAPRNWGQGSLVTVSSASTKGPKLEEGEFSEARVQSVLTQPPSVSAAPGQKVTISCSGSSSNIGNNYVSWYVQLPGTAPKLLIYDNNKRFSGVPDRFSGSKSGTSATLGITGLQTGDEADYYCGAWDGSLREAVFGGGTKVTVLGAAAVDDYKDDDDKEFTREKKELRKVAHLTGKSNSRSMPLEWEDTYGIVLLSGVKYKKGGLVINETGLYFVYSKVYFRGQSCNNLPLSHKVYMRNSKYPQDLVMMEGKMMSYCTTGQMWARSSYLGAVFNLTSADHLYVNVSELSLVNFEESQTFFGLYKL
notes: Made in HEK293 cells and purified on anti-Flag M2 agarose; Forms covalently associated trimers through the tenascin domain; Crosslinking, gel filtration and native PAGE (about 500 kDa) point to hexamers, i.e. dimers of trimers; also called SC40-CD95L-PD; CD95-TNC-PL-SC40-F-CD95L
binding result [2]: binds
